Laboratory results: US20080199467A1 (published 2008)
Each block holds one binder with its values, some of them ahead of it.

Experiments:
Assay in all cases: saturation binding ELISA (immobilized ligand)
[1] = biological target: CML
[2] = biological target: T1, S100b (UniProt P04271 2-92)
T1 chain: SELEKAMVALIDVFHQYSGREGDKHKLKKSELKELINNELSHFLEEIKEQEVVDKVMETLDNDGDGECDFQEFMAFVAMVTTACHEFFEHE

[3] = biological target: T2, amphoterin (UniProt P09429 1-215)
T2 chain: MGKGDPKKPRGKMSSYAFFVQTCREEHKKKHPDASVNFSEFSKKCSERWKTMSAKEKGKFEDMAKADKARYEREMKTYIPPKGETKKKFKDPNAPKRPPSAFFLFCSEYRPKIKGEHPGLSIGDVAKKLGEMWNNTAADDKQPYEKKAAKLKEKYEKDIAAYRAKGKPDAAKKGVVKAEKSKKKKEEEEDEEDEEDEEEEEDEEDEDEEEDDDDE

Kd [1]: 0.075 µM
B1: TTP4000 (Fc fusion)
chain: QNITARIGEPLVLKCKGAPKKPPQRLEWKLNTGRTEAWKVLSPQGGGPWDSVARVLPNGSLFLPAVGIQDEGIFRCQAMNRNGKETKSNYRVRVYQIPGKPEIVDSASELTAGVPNKVGTCVSEGSYPAGTLSWHLDGKPLVPNEKGVSVKEQTRRHPETGLFTLQSELMVTPARGGDPRPTFSCSFSPGLPRHRALRTAPIQPRVWEPVPLEEVQLVVEPEGGAVAPPSVFLFPPKPKDTLMISRTPEVTCVVVDVSHEDPEVKFNWYVDGVEVHNAKTKPREEQYNSTYRVVSVLTVLHQDWLNGKEYKCKVSNKALPAPIEKTISKAKGQPREPQVYTLPPSRDELTKNQVSLTCLVKGFYPSDIAVEWESNGQPENNYKTTPPVLDSDGSFFLYSKLTVDKSRWQQGNVFSCSVMHEALHNHYTQKSLSLSPGK
modifications: N-terminal residue glutamine (Q) or pyroglutamic acid (pE) or a mixture thereof; glycosylation sites at N2 and N288 (numbering of the processed protein); C-terminal residue may be cleaved off

Kd [2]: 0.077 µM
Kd [3]: 0.04 µM
B2: RAGE fusion protein TTP-4000 (Fc fusion)
chain: B1 chain
modifications: N-terminal residue glutamine (Q) or pyroglutamic acid (pE) or a mixture thereof; glycosylation sites at N2 and N288 (numbering of the processed protein); C-terminal residue may be cleaved off
